From US7728193B2, “Phytochrome-interacting protein and a use thereof” (Genomine Inc., priority 2004, dated 2010)

Legend:
[1] = target: T1, GST-PAPP5 (Arabidopsis thaliana, UniProt Q84XU2); test: In vitro phosphatase assay of GST-PAPP5 with ρNPP as substrate: effect of arachidonic acid and okadaic acid; format: biochemical
T1 sequence (Q84XU2 1-484 isoform Q84XU2-2): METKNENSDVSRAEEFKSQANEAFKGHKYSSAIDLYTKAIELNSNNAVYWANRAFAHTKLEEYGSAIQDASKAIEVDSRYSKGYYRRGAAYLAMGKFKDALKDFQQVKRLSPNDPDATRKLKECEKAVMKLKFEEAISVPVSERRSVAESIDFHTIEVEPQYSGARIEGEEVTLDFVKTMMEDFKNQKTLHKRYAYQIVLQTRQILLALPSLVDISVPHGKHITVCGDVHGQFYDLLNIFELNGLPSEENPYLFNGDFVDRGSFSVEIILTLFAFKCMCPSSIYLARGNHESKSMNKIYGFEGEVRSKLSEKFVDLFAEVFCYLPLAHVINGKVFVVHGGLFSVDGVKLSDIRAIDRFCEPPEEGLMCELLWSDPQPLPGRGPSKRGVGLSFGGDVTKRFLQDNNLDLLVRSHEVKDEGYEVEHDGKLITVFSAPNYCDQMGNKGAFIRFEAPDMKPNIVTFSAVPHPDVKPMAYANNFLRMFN
Method: In order to examine whether the inventive PAPP5 protein has enzymatic activity, an enzymatic assay was performed using […] ρ-nitrophenyl phosphate (ρNPP) as a substrate. First, the GST-PAPP5 fusion protein purified in Example <4-1> was prewarmed at 30° C. for 1 minute. The prewarmed enzyme solution was added to 100 μl of kinase/phosphatase (KP) buffer (20 mM Tris-HCl pH 7.5, 30 mM MgCl2, 1 mM EDTA, 1 mM EGTA, 0.1% β-mercaptoethanol, 0.1% ethanol) containing O-400 mM ρNPP to initiate a reaction. […] . After reaction at 30° C. for 15 minutes, 900 μl of 0.25N NaOH was added to terminate the reaction. The absorbance at 410 nm was measured. After subtracting the absorbance value of the control reaction solution containing all the components except for the enzyme from that of the reaction solution containing the enzyme, the rate was calculated using a millimolar extinction coefficient (17.8) of ρ-nitrophenolate ions.
In order to confirm if the phosphatase activity of the inventive PAPP5 protein is activated by arachidonic acid, 0-300 μM arachidonic acid was added to a reaction mixture in the presence of 100 mM ρNPP, and the enzymatic activity was measured according to the same method as Example <6-1>.
Thus, the inhibitory effect of okadaic acid on the phosphatase activity of GST-PAPP5 was examined. As a result, the IC50 of okadaic acid, at which the enzyme activity is inhibited by 50%, was 5 nM (data not shown).
(§1) Thus, in order to confirm if PAPP5 also have this property, the present inventors examined the phosphatase activities of GST-PAPP5, GST-TPR and GST-PP2Ac in the same manner as in Example <6-1>. At this time, the concentration of ρNPP was 100 mM.

[2] = target: autophosphorylated oat Pfr phytochrome A (oat)
[3] = system: autophosphorylated oat phytochrome A; test: Dephosphorylation of autophosphorylated phytochrome by PAPP5 in vitro; format: biochemical; conditions: 1 μg fusion protein, 30 minutes
Method: First, KP buffer (20 mM Tris-HCl pH7.5, 30 mM MgCl2, 1 mM EDTA, 1 mM EGTA, 0.1% β-mercaptoethanol, 0.1% ethanol) containing 1 μg of purified oat phytochrome A (provided from Kumho Life and Environmental Science Laboratory, Korea) was set on ice and irradiated with Rc light output of 50 μmolS^−1m^−2 at 664 nm for 5 minutes. Then, the reaction solution was allowed to react with [γ-^32P]ATP in dark conditions for 30 minutes (autophosphorylation of phytochrome A). Following addition of 1 μg of each of the fusion proteins GST-PAPP5, GST-TPR and GST-PP2Ac prepared in Examples <4-1> and <5-1>, the reaction continued for more 30 minutes, and then stopped by adding 12 μl of 5× Tris-glycine SDS sample buffer under dim green safe light.
Next, the present inventors investigated whether the phosphatase activity of PAPP5 depends on a change in the spectroscopic structure (photoconversion) of phytochrome molecules (Pr⇄Pfr). KP buffer solution containing phytochrome was set on ice and irradiated with a Rc light output of 50 μmolS^−1m^−2 at 664 nm (conversion of phytochrome into Pfr form) or a FRc light output of 50 μmolS^−1m^−2 at 748 nm (conversion of phytochrome into […]) for 5 minutes. Then, the autophosphylation/dephosphorylation test of phytochrome was performed in the same manner as described above.

[4] = system: phytochrome molecules; test: Pull-down assay with PAPP5 domain fragments; format: binding, Arabidopsis thaliana
Method: Thereafter, according to the same method as in Example <4-1>, an in vitro assay was performed on each of the proteins which have been expressed and purified in E. coli.

[5] = system: phytochromes; test: Quantitative yeast two-hybrid assay (β-galactosidase activity); format: cell-based, Arabidopsis thaliana; conditions: PHYA or PHYB bait, EGY48 yeast
Method: In order to quantitatively assay the interaction between the TPR domain of PAPP5 and phytochromes, each of recombinant vectors (preys) for the TPR domain of PAPP5 and for the PP2A catalytic domain of PAPP5 were prepared, respectively.
A PHYA gene or a PHYB gene was prepared by performing PCR according to the same method as in Example <4-2>, and inserted into a pGilda vector. The recombinant vector was used as a bait. The prepared bait or prey was co-introduced into an EGY48 yeast strain together with a pSH18-34 reporter plasmid. The transformed strain was cultured until the OD600 value reached about 0.7. The cultured cells were washed one time with Z-buffer solution (60 mM Na2HPO4, 40 mM NaH2PO4, 10 mM KCl, 1 mM MgSO4, pH 7.0), and then re-suspended in the solution. Thereafter, the solution was frozen with liquid N2. The frozen solution was dissolved, to which β-mercaptoethanol and ONPG (o-nitrophenyl-β-D-galactopyranoside) were then added at final concentrations of 0.2% and 0.67 mg/ml, respectively. The dissolved solution was allowed to react for 30 minutes at 37° C. Next, Na2CO3 was added to the solution at a final concentration of 0.3 M to terminate the reaction. The absorbance at […] was measured, and the β-galactosidase activity was determined in Miller units (Miller, J. H. Experiments in Molecular Genetics (Cold Spring Harbor Laboratory, Cold Spring harbor, N.Y., 1972)).

[6] = In vitro phosphatase assay: enzymatic activity of PAPP5 and its domain fragments on ρNPP; format: biochemical; conditions: 100 mM ρNPP; regardless of the addition of arachidonic acid
Method: In order to examine whether the inventive PAPP5 protein has enzymatic activity, an enzymatic assay was performed using […] ρ-nitrophenyl phosphate (ρNPP) as a substrate. First, the GST-PAPP5 fusion protein purified in Example <4-1> was prewarmed at 30° C. for 1 minute. The prewarmed enzyme solution was added to 100 μl of kinase/phosphatase (KP) buffer (20 mM Tris-HCl pH 7.5, 30 mM MgCl2, 1 mM EDTA, 1 mM EGTA, 0.1% β-mercaptoethanol, 0.1% ethanol) containing O-400 mM ρNPP to initiate a reaction. To examine the autohydrolysis of ρNPP at each substrate concentration, the GST-PAPP5 enzyme solution was not added to a control group. After reaction at 30° C. for 15 minutes, 900 μl of 0.25N NaOH was added to terminate the reaction. The absorbance at 410 nm was measured. After subtracting the absorbance value of the control reaction solution containing all the components except for the enzyme from that of the reaction solution containing the enzyme, the rate was calculated using a millimolar extinction coefficient (17.8) of ρ-nitrophenolate ions.
as §1

Molecule: CCCCC/C=C\C/C=C\C/C=C\C/C=C\CCCC(=O)O [arachidonic acid]
- arachidonic acid concentration at which activity of GST-PAPP5 reached the stationary phase ([1]; 0-300 μM arachidonic acid, 100 mM ρNPP): above 100 μM
- increase of phosphatase activity of GST-PAPP5 by arachidonic acid ([1]; 100 mM ρNPP): about five times increased

Molecule: C=C1[C@@H](O)[C@@H]2O[C@]3(CC[C@H](/C=C/[C@@H](C)[C@@H]4CC(C)=C[C@@]5(O[C@H](C[C@@](C)(O)C(=O)O)CC[C@H]5O)O4)O3)CC[C@H]2O[C@@H]1[C@@H](O)C[C@H](C)[C@H]1O[C@@]2(CCCCO2)CC[C@H]1C [okadaic acid]
- IC50 ([1]; phosphatase activity of GST-PAPP5, data not shown, read-out: IC50 of okadaic acid, at which the enzyme activity is inhibited by 50%): 5 nM

Molecule: GST-PAPP5 fusion protein (enzyme)
- dephosphorylation of autophosphorylated phytochrome A (autoradiography after SDS-PAGE) [2]: 80%

Molecule: GST-PAPP5: a fusion protein of GST and full-length PAPP5
- dephosphorylation of autophosphorylated oat Pfr phytochrome A [3]: about 80%

B1: GST-TPR: fusion protein of GST and TPR domain of PAPP5, amino acids 1-138 of SEQ ID NO: 4 (protein)
chain: METKNENSDVSRAEEFKSQANEAFKGHKYSSAIDLYTKAIELNSNNAVYWANRAFAHTKLEEYGSAIQDASKAIEVDSRYSKGYYRRGAAYLAMGKFKDALKDFQQVKRLSPNDPDATRKLKECEKAVMKLKFEEAIS
- ability to interact with phytochrome molecules (pull-down) [4]: has the ability to interact
- level of dephosphorylation of autophosphorylated oat Pfr phytochrome A (in words) [3]: do not affect the phosphorylation status

B2: B42-PP2Ac: TPR domain-deleted PP2A catalytic domain of PAPP5 as yeast two-hybrid prey (protein)
chain: SVPVSERRSVAESIDFHTIEVEPQYSGARIEGEEVTLDFVKTMMEDFKNQKTLHKRYAYQIVLQTRQILLALPSLVDISVPHGKHITVCGDVHGQFYDLLNIFELNGLPSEENPYLFNGDFVDRGSFSVEIILTLFAFKCMCPSSIYLARGNHESKSMNKIYGFEGEVRSKLSEKFVDLFAEVFCYLPLAHVINGKVFVVHGGLFSVDGVKLSDIRAIDRFCEPPEEGLMCELLWSDPQPLPGRGPSKRGVGLSFGGDVTKRFLQDNNLDLLVRSHEVKDEGYEVEHDGKLITVFSAPNYCDQMGNKGAFIRFEAPDMKPNIVTFSAVPHPDVKPMAYANNFLRMFN
- activity of interaction with phytochromes (β-galactosidase activity) [5]: remarkable reduction

B3: GST-PP2Ac: fusion of GST and PP2A catalytic domain of PAPP5 with a deletion of amino acids 1-138 in SEQ ID NO: 4 (protein)
chain: SVPVSERRSVAESIDFHTIEVEPQYSGARIEGEEVTLDFVKTMMEDFKNQKTLHKRYAYQIVLQTRQILLALPSLVDISVPHGKHITVCGDVHGQFYDLLNIFELNGLPSEENPYLFNGDFVDRGSFSVEIILTLFAFKCMCPSSIYLARGNHESKSMNKIYGFEGEVRSKLSEKFVDLFAEVFCYLPLAHVINGKVFVVHGGLFSVDGVKLSDIRAIDRFCEPPEEGLMCELLWSDPQPLPGRGPSKRGVGLSFGGDVTKRFLQDNNLDLLVRSHEVKDEGYEVEHDGKLITVFSAPNYCDQMGNKGAFIRFEAPDMKPNIVTFSAVPHPDVKPMAYANNFLRMFN
- phosphatase activity relative to GST-PAPP5 with no arachidonic acid [6]: five times higher activity
- level of dephosphorylation of autophosphorylated oat Pfr phytochrome A (in words) [3]: very low
